In US20020165123A1 (published 2002):
Values belong to the binder of their own block, whether it stands above or below them. Bridges are numbered along the chain shown (N, C = ends). Where no end group is shown, it is not given here.

What was measured:
[1] = biological target: T1, CXC chemokine receptor 4 (CXCR4) (UniProt P61073 1-352, limits assumed); assay: competition against 4 nM 125I-SDF-1 on CEM cells (FIG. 2B)
T1 construct: whole, on cells; Endogenous receptor on CEM and THP-1 cells; also called SDF-1 receptor; fusin
T1 sequence (P61073 whole entry): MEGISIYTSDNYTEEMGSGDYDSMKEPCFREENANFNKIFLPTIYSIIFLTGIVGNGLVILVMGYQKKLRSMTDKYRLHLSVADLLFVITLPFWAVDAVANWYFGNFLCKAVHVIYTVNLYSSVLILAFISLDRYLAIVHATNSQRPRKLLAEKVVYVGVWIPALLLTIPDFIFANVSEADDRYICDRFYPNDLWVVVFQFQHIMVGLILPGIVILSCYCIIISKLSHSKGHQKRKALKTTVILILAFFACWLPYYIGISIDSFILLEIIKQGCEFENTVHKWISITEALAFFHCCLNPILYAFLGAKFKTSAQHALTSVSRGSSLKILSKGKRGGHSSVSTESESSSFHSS
Description: SDF-1 and the indicated analogs (competing ligands, described in Examples) were added at the concentrations illustrated in the presence of 4 nM ¹²⁵I-SDF-1. CEM cells were assessed for ¹²⁵I-SDF-1 binding following 2 hr of incubation. The results are expressed as percentages of the maximal specific binding that was determined without competing ligand, and are the mean of three independent experiments.
A competitive dose response for binding to the SDF-1 receptor by native SDF-1 and the CXCR4 agonists against ¹²⁵I-SDF-1 is shown in FIGS. 2A and 2B respectively. A concentration-dependent inhibition of ¹²⁵I-SDF-1 is illustrated in FIG. 2A, indicating the affinity of SDF-1 for the receptor. […] SDF-1 and the indicated analogs (competing ligands) were added at the concentrations illustrated in the presence of 4 nM ¹²⁵I-SDF-1. CEM cells were assessed for ¹²⁵I-SDF-1 binding following 2 hr of incubation. The results are expressed as percentages of the maximal specific binding that was determined without competing ligand, and are the mean of three independent experiments. The inhibition of ¹²⁵I-SDF-1 by SDF-1 and the SDF-1 analogs is indicative of CXCR4 receptor binding. The compounds illustrated in the figure are as follows: SDF-1(1-14)-(G)₄-SDF-1(55-67)-K20/E24-cyclic amide (CTCE0021), SDF-1(1-14)-(G)₄-SDF-1(55-67)-E24/K28-cyclic amide (CTCE0022), SDF-1(1-9)₂-C9/C9-cysteine dimer (CTCE9901), SDF-1(1-17) (CTCE9902), SDF-1(1-8)₂-lysine bridge dimer (CTCE9904) and SDF-1(1-14)-(G)₄-SDF-1(55-67) amide (CTCE0017).

[2] = biological target: T1, CXC chemokine receptor 4 (CXCR4); assay: cell-based or functional assay

Binder: KPVSLSYRCPCRFFGGGGLKWIQEYLEKALN-NH2 (lactam 24-28; cysteine pairing not given here) [SDF-1(1-14)-(G)4-SDF-1(55-67)-E24/K28-cyclic amide]
EC50 of [Ca2+]i mobilization, fura-2,AM loaded THP-1 cells [2]: 106 nM

Binder: KPVSLSYRCPCRFFGGGGLKWIQEYLEKALN-OH (cysteine pairing not given here) [SDF-1(1-14)-(G)4-SDF-1(55-67) acid]
EC50 of [Ca2+]i mobilization, fura-2,AM loaded THP-1 cells [2]: 188 nM

Binder: KPVSLSYRCPCRFFGGGGLKWIQEYLEKALN-NH2 (lactam 20-24; cysteine pairing not given here) [SDF-1(1-14)-(G)4-SDF-1(55-67)-K20/E24-cyclic amide]
EC50 of [Ca2+]i mobilization, fura-2,AM loaded THP-1 cells [2]: 148 nM

The remaining lines, values ahead:

binding result [1]: binds
B1: SDF-1(1-9)2-C9/C9-cysteine dimer (peptide)
peptide: KPVSLSYRC
modifications: also: homodimer via disulphide between Cys9 of the two chains
notes: Homodimer of SDF-1(1-9), with free acid C-termini; also called CTCE9901

binding result [1]: binds
B2: SDF-1(1-17) (peptide)
peptide: KPVSLSYRCPCRFFESH
notes: Linear peptide, free acid; also called CTCE9902

binding result [1]: binds
B3: SDF-1(1-8)2-lysine bridge dimer (peptide)
peptide: KPVSLSYRK-NH2
modifications: also: dimer: two chains' Arg8 amide-linked to one bridging lysine (alpha and epsilon amino groups)
notes: Two SDF-1(1-8) chains joined through one lysine amide; also called CTCE9904
